Data: PMC7815789, “Degradation of complex arabinoxylans by human colonic Bacteroidetes” (Nature Communications, 2021)

Biological target: BACINT_01039-CE1 (carbohydrate esterase family 1, acetyl-xylan esterase) (Bacteroides intestinalis DSM 17393) (UniProt B3C975)
Assay: crystal structure; seleno-methionine-labeled BACINT_01039-CE1, 20 mg/mL in 50 mM Tris, 150 mM NaCl pH 7.5; hanging drop; 10 mM ammonium sulfate, 80 mM sodium cacodylate pH 6.5, 21% PEG4000; two molecules in the asymmetric unit as a dimer

Substance: BACINT_01039-CE1 (carbohydrate esterase family 1, acetyl-xylan esterase) (from UniProt B3C975 1-382) (enzyme)
- stoichiometry N: 2
